Reference: US20060159654A1 (ROCKEFELLER UNIVERSITY, published 2006)

What was measured:
[1] = molecular target: murine TRANCE receptor (TRANCE-R) on the cell surface (murine) (UniProt O35305); assay: cell-based or functional assay
[2] = molecular target: T1, murine TRANCE (mTRANCE) on the cell surface (murine, UniProt O35235 1-316); assay: flow cytometry on transfected 293T cells and on activated murine T cells, TR-Fc at 5 mg/ml as printed, FITC anti-human Fc
T1 construct: also called RANK-L
T1 sequence: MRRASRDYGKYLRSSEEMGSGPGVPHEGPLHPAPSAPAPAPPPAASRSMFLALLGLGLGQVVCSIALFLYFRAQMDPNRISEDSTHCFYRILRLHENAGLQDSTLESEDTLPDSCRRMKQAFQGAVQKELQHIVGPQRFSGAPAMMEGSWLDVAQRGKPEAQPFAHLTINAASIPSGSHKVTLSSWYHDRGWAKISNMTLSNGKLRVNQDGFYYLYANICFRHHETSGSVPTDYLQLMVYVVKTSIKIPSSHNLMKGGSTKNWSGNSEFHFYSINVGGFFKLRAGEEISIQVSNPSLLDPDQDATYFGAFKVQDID
Description: Determination of the specificity of hCD8-TRANCE and TR-Fc.
Flow cytometry. The expression of TRANCE on activated CD4+ and CD8⁺ T-cells was assessed using the TR-Fc fusion protein at 5 mg/ml followed by FITC-conjugated goat anti-human IgG (Fc specific) F(ab′)₂ fragment (Jackson. Laboratories, West Grove, Pa.). The negative control consisted of normal hIgG1 (Sigma, St Louis, […].). T-cell and thymocyte subsets were sorted using a FACS “VANTAGE”, (Becton Dickinson, Mountain View, Calif.).

FLAG-tagged soluble form of TRANCE (TRANCE-Ecto) (from UniProt O35235 72-316) (ligand)
JNK activation (fold induction over unstimulated), LNTC [1]: 2 fold | JNK activation (fold induction over unstimulated), T cell hybridomas [1]: 2 fold | JNK activation (fold induction over unstimulated), thymocytes [1]: 3 fold

human CD8-TRANCE recombinant molecule (from UniProt P01732 22-182) (ligand)
JNK activity in thymocytes of control littermates [1]: 2.5 fold

B1: TRANCE-R-Fc recombinant molecule (Fc fusion, murine, UniProt O35305 31-214, looked up)
chain: VTPPCTQERHYEHLGRCCSRCEPGKYLSSKCTPTSDSVCLPCGPDEYLDTWNEEDKCLLHKVCDAGKALVAVDPGNHTAPRRCACTAGYHWNSDCECCRRNTECAPGFGAQHPLQLNKDTVCTPCLLGFFSDVFSSTDKCKPWTNCTLLGKLEAHQGTTESDVVCSSSMTLRRPPKEAQAYLPS
notes: extracellular domain; Made in a baculovirus system and purified on protein A sepharose; also called TR-Fc; TR.R-Fc; not shown: Fc portion of human IgG1, fused to the C-terminal end of the receptor's extracellular domain
binding result [2]: binds
